From PMC9092470, “Understanding p300-transcription factor interactions using sequence variation and hybridization†” (RSC Chemical Biology, 2022)
No end group written: not given here.

The substances below were run against GST-tagged p300 CH1 domain (residues 330–420) (UniProt Q09472) (assay: fluorescence polarisation; fluorescence anisotropy by the fluorescence of GFP; GFP-HIF-1α 776–826 variants with GST-p300; 25 mM Tris–HCl, 150 mM NaCl, 1 mM DTT, pH 7.4; 1:1 model, each p300 site of the GST dimer taken as independent). Conditions: not given.

In order of falling Kd:
1. GFP-HIF-1α 776–826 D799A E801A N803A (from UniProt Q16665 776-826) (domain or fragment)  0.59 µM
2. GFP-HIF-1α 776–826 L795A D799A (from UniProt Q16665 776-826) (domain or fragment)  0.255 µM
3. GFP-HIF-1α 776–826 L818A L822A D823A (from UniProt Q16665 776-826) (domain or fragment)  0.247 µM
4. GFP-HIF-1α 776–826 L818A (from UniProt Q16665 776-826) (domain or fragment)  0.237 µM
5. GFP-HIF-1α 776–826 E801A L822A (from UniProt Q16665 776-826) (domain or fragment)  0.224 µM
6. GFP-HIF-1α 776–826 V825A (from UniProt Q16665 776-826) (domain or fragment)  0.198 µM
7. GFP-HIF-1α 776–826 L795A D799A L822A (from UniProt Q16665 776-826) (domain or fragment)  0.174 µM
8. GFP-HIF-1α 776–826 L795A D799A L818A L822A V825A (from UniProt Q16665 776-826) (domain or fragment)  0.153 µM
9. GFP-HIF-1α 776–826 E817A (from UniProt Q16665 776-826) (domain or fragment)  0.128 µM
10. GFP-HIF-1α 776–826 L818A L822A (from UniProt Q16665 776-826) (domain or fragment)  0.126 µM
11. GFP-HIF-1α 776–826 N803A (from UniProt Q16665 776-826) (domain or fragment)  0.12 µM
12. GFP-HIF-1α 776–826 L795A (from UniProt Q16665 776-826) (domain or fragment)  0.118 µM
13. GFP-HIF-1α 776–826 D799A (from UniProt Q16665 776-826) (domain or fragment)  0.114 µM
14. GFP-HIF-1α 776–826 L822A (from UniProt Q16665 776-826) (domain or fragment)  0.109 µM
15. GFP-HIF-1α 776–826 L818A L822A V825A (from UniProt Q16665 776-826) (domain or fragment)  0.054 µM
16. GFP-HIF-1α 776–826 S797A (from UniProt Q16665 776-826) (domain or fragment)  0.037 µM
17. GFP-HIF-1α 776–826 Q824A (from UniProt Q16665 776-826) (domain or fragment)  0.031 µM

These substances were tested against GST-p300 (p300 CH1 domain, residues 330–420) (Homo sapiens, UniProt Q09472) (assay: Fluorescence anisotropy direct titration of GFP-HIF-1α776–826 variants with GST-p300). Conditions: 50 nM GFP-HIF-1α776–826 variant, GST-p300 serial dilution, 25 mM Tris–HCl, 150 mM NaCl, 1 mM DTT, pH 7.4, 27 °C, 1:1 model, ± standard error of fitted value, technical triplicates.
Chain of GST-p300 (p300 CH1 domain, residues 330–420) (Q09472 330-420): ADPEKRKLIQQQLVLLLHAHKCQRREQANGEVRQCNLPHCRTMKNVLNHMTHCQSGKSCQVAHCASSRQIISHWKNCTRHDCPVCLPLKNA
Type: binding
Text: To experimentally compare the predictions, we carried out an in vitro biophysical study of several HIF-1α sequence variants. We assessed predicted hot residues and their interactions with p300 using the NMR structure to visualize the structural basis behind the predictions (See ESI, ^† Fig. S2). These analyses helped refine a first series of alanine variants to prepare. […] HIF-1α776–826 sequence variants were recombinantly prepared based on the predictions to test their binding to the recombinantly prepared p300 (Fig. 2). Given the length of the peptide ([…]), this was considered advantageous as it obviates the need to chemically synthesise, label and purify multiple variants. As the C-TAD domain is unstructured in isolation it was recombinantly expressed as a fusion protein with GFP. The green-fluorescent protein (GFP) tag was used for fluorescence anisotropy (FA) experiments to determine the binding affinity of HIF-1α776–826 C-TAD variants to p300. As the CH1 domain of p300 is a small domain of 11 kDa it was recombinantly expressed as a fusion protein with GST to increase its size and thus the signal to noise in the FA experiments. We established an assay where the interaction between GFP-tagged wt HIF-1α776–826 and GST-tagged p300 was monitored by FA, using the fluorescence of GFP. GST dimerises with single digit nM Kd[61] (and in our hands exists as a dimer in size exclusion chromatography analyses, see ESI, ^† Fig. S15 for protein characterization data), thus two molecules of GFP-HIF-1α could bind to the GST-p300 dimer (Fig. 2a). We make the assumption that each p300 binding site behaves independently and analyse the binding isotherm using a 1 : 1 model.
Fig. 2 Biophysical analyses on the effects of HIF-1α sequence variant p300 binding affinity. (a) schematic depicting the equilibrium for interaction of GFP-HIF-1α776–826 variants and GST-p300 as studied by fluorescence anisotropy; (b) representative fluorescence anisotropy titration data for sAV and mAV GFP-HIF-1α776–826 peptides interacting with GST-p300 (25 mM Tris–HCl, 150 mM NaCl, 1 mM DTT, pH 7.4), error bars represent standard deviation of technical triplicates; (c) raw ITC data (upper) and fitted thermogram (lower) for the interaction of GFP-HIF-1α776–826 peptides with p300 (37 °C in 25 mM Tris–HCl, 150 mM NaCl, 1 mM DTT, pH 7.4) using 10 μM p300 in the cell and 100 μM GFP-HIF-1α776–826 variant in the syringe; error bars represent estimated integration errors (d) thermodynamic signatures for each interaction. […]
7.4 buffer or dialysed into 25 mM Tris, 150 mM NaCl, 1 mM DTT pH 7.4 buffer.
GSTp300 protein was serially diluted in buffer (25 mM Tris-HCl, 150 mM NaCl, 1mM DTT, pH 7.4) and GFP-HIF-1α (50nM final concentration) was added, the plates were read after 0 min, 60 min, 4 h and 24 h, and incubated at room temperature in between. Each experiment was run in triplicate and the fluorescence anisotropy measured using an EnVision 2103 MultiLabel plate reader (Perkin Elmer) with excitation at 480 nm and emission at 535 nm (30 nm bandwidths). The recorded temperature for all measurements was 27°C ± 1°C. In parallel, a control experiment was performed in which no GFP-HIF was added and the volume made up with additional buffer, this blank was deducted from the raw data for each of the three repeats.
The intensity was calculated for each point using eqn (1) and used to calculated anisotropy […]
using eqn (2). From a plot of anisotropy against GST-p300 concentration the minimum and maximum anisotropies were obtained using a logistic sigmoidal fit in OriginPro 8.6. This allowed the conversion to fraction bound (eqn (3)). The data were then fitted using eqn (4) in OriginPro 8.6 to determine the dissociation constant, Kd. […]
5 µl injections and 180 s spacing between injections, for 40 injections. Titrations were performed in 40 mM Na-phosphate, pH 7.5 100 mM NaCl, 1 mM DTT buffer except for GFP- […]

In order of rising Kd:
1. Q824A: GFP-HIF-1α776–826 C-TAD single alanine variant Q824A ({GFP}-SDLACRLLGQSMDESGLPQLTSYDCEVNAPIQGSRNLLQGEELLRALDAVN; cysteine pairing not given here)  0.031 ± 0.008 µM
2. S797A: GFP-HIF-1α776–826 C-TAD single alanine variant S797A ({GFP}-SDLACRLLGQSMDESGLPQLTAYDCEVNAPIQGSRNLLQGEELLRALDQVN; cysteine pairing not given here)  0.037 ± 0.016 µM
3. L818A L822A V825A: GFP-HIF-1α776–826 C-TAD multiple alanine variant ({GFP}-SDLACRLLGQSMDESGLPQLTSYDCEVNAPIQGSRNLLQGEEALRAADQAN; cysteine pairing not given here)  0.054 ± 0.033 µM
4. L822A: GFP-HIF-1α776–826 C-TAD single alanine variant L822A ({GFP}-SDLACRLLGQSMDESGLPQLTSYDCEVNAPIQGSRNLLQGEELLRAADQVN; cysteine pairing not given here)  0.109 ± 0.066 µM
5. D799A: GFP-HIF-1α776–826 C-TAD single alanine variant D799A ({GFP}-SDLACRLLGQSMDESGLPQLTSYACEVNAPIQGSRNLLQGEELLRALDQVN; cysteine pairing not given here)  0.114 ± 0.053 µM
6. L795A: GFP-HIF-1α776–826 C-TAD single alanine variant L795A ({GFP}-SDLACRLLGQSMDESGLPQATSYDCEVNAPIQGSRNLLQGEELLRALDQVN; cysteine pairing not given here)  0.118 ± 0.019 µM
7. N803A: GFP-HIF-1α776–826 C-TAD single alanine variant N803A ({GFP}-SDLACRLLGQSMDESGLPQLTSYDCEVAAPIQGSRNLLQGEELLRALDQVN; cysteine pairing not given here)  0.12 ± 0.017 µM
8. L818A L822A: GFP-HIF-1α776–826 C-TAD multiple alanine variant ({GFP}-SDLACRLLGQSMDESGLPQLTSYDCEVNAPIQGSRNLLQGEEALRAADQVN; cysteine pairing not given here)  0.126 ± 0.033 µM
9. E817A: GFP-HIF-1α776–826 C-TAD single alanine variant E817A ({GFP}-SDLACRLLGQSMDESGLPQLTSYDCEVNAPIQGSRNLLQGEALLRALDQVN; cysteine pairing not given here)  0.128 ± 0.011 µM
10. L795A D799A L818A L822A V825A: GFP-HIF-1α776–826 C-TAD multiple alanine variant ({GFP}-SDLACRLLGQSMDESGLPQATSYACEVNAPIQGSRNLLQGEEALRAADQAN; cysteine pairing not given here)  0.153 ± 0.019 µM
11. L795A D799A L822A: GFP-HIF-1α776–826 C-TAD multiple alanine variant ({GFP}-SDLACRLLGQSMDESGLPQATSYACEVNAPIQGSRNLLQGEELLRAADQVN; cysteine pairing not given here)  0.174 ± 0.045 µM
12. V825A: GFP-HIF-1α776–826 C-TAD single alanine variant V825A ({GFP}-SDLACRLLGQSMDESGLPQLTSYDCEVNAPIQGSRNLLQGEELLRALDQAN; cysteine pairing not given here)  0.198 ± 0.037 µM
13. E801A L822A: GFP-HIF-1α776–826 C-TAD multiple alanine variant ({GFP}-SDLACRLLGQSMDESGLPQLTSYDCAVNAPIQGSRNLLQGEELLRAADQVN; cysteine pairing not given here)  0.224 ± 0.018 µM
14. L818A: GFP-HIF-1α776–826 C-TAD single alanine variant L818A ({GFP}-SDLACRLLGQSMDESGLPQLTSYDCEVNAPIQGSRNLLQGEEALRALDQVN; cysteine pairing not given here)  0.237 ± 0.04 µM
15. L818A L822A D823A: GFP-HIF-1α776–826 C-TAD multiple alanine variant ({GFP}-SDLACRLLGQSMDESGLPQLTSYDCEVNAPIQGSRNLLQGEEALRAAAQVN; cysteine pairing not given here)  0.247 ± 0.075 µM
16. L795A D799A: GFP-HIF-1α776–826 C-TAD multiple alanine variant ({GFP}-SDLACRLLGQSMDESGLPQATSYACEVNAPIQGSRNLLQGEELLRALDQVN; cysteine pairing not given here)  0.255 ± 0.044 µM
17. D799A E801A N803A: GFP-HIF-1α776–826 C-TAD multiple alanine variant ({GFP}-SDLACRLLGQSMDESGLPQLTSYACAVAAPIQGSRNLLQGEELLRALDQVN; cysteine pairing not given here)  0.59 ± 0.302 µM
